Results taken from patent publication US20200079833A1 (AstraZeneca / MedImmune, published 2020).
Starred links: 1 amine or outer side, 2 acyl side, 3 side chain; linkers in the order of their positions; H or OH if unused. Non-standard residues stand in square brackets, D forms with d. Groups on a side chain read outwards from the residue. Primed or numbered codes have the meaning given here. No end group written: not given here. *: point of attachment. γGlu = O=C(O)[C@H](CCC(=O)[*:2])N[*:1]; αMeF = C[C@](N)(Cc1ccccc1)C(=O)O; αMeK = C[C@](N)(CCCCN)C(=O)O; Lauroyl = CCCCCCCCCCCC(=O)*; αMeS = C[C@](N)(CO)C(=O)O; PEG2′ = not defined here; Aib = CC(C)(N)C(=O)O

T1: glucose-dependent insulinotropic peptide (gastric inhibitory polypeptide) receptor (GIPR), primary cAMP assay … (human, UniProt P48546 22-466)
T1 sequence (looked up): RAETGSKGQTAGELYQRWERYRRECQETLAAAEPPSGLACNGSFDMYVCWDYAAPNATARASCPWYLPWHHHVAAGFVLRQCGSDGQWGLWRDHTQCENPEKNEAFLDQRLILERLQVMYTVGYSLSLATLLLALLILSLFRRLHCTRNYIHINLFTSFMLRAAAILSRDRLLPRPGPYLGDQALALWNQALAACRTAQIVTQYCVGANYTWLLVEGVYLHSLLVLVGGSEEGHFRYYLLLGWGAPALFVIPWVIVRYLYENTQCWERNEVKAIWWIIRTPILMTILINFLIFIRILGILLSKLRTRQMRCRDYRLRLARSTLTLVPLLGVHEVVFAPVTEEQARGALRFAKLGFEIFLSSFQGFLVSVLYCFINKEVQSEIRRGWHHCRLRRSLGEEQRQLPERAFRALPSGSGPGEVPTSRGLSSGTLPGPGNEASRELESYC

B1: SEQ ID NO: 444 (peptide)
peptide: H[Aib]EGS[αMeF]TSDVSK([PEG2′-PEG2′-γGlu-Lauroyl])YLEGK([PEG2′-PEG2′-γGlu-Lauroyl])AA[αMeK]EFIK([PEG2′-PEG2′-γGlu-Lauroyl])FVVEGG-NH2
B2: SEQ ID NO: 448 (peptide)
peptide: H[Aib]EGS[αMeF]TSDV[αMeS]SK([PEG2′-PEG2′-γGlu-Lauroyl])LEGK([PEG2′-PEG2′-γGlu-Lauroyl])AA[αMeK]EFIK([PEG2′-PEG2′-γGlu-Lauroyl])FVVEGG-NH2
B3: SEQ ID NO: 459 (peptide)
peptide: H[Aib]EGS[αMeF]TSDVSK([PEG2′-PEG2′-γGlu-Lauroyl])YLEK([PEG2′-PEG2′-γGlu-Lauroyl])EAA[αMeK]EFIAK([PEG2′-PEG2′-γGlu-Lauroyl])VVEGG-NH2
B4: SEQ ID NO: 446 (peptide)
peptide: H[Aib]EGS[αMeF]TSDVSK([PEG2′-PEG2′-γGlu-Lauroyl])YLEGEAA[αMeK]K([PEG2′-PEG2′-γGlu-Lauroyl])FIK([PEG2′-PEG2′-γGlu-Lauroyl])FVVEGG-NH2
B5: SEQ ID NO: 457 (peptide)
peptide: H[Aib]EGS[αMeF]TSDK([PEG2′-PEG2′-γGlu-Lauroyl])SSYLEGEK([PEG2′-PEG2′-γGlu-Lauroyl])A[αMeK]EFIAK([PEG2′-PEG2′-γGlu-Lauroyl])VVEGG-NH2
B6: SEQ ID NO: 449 (peptide)
peptide: H[Aib]EGS[αMeF]TSDV[αMeS]SK([PEG2′-PEG2′-γGlu-Lauroyl])LEGEK([PEG2′-PEG2′-γGlu-Lauroyl])A[αMeK]EFIK([PEG2′-PEG2′-γGlu-Lauroyl])FVVEGG-NH2
B7: SEQ ID NO: 452 (peptide)
peptide: H[Aib]EGS[αMeF]TSDV[αMeS]SYK([PEG2′-PEG2′-γGlu-Lauroyl])EGK([PEG2′-PEG2′-γGlu-Lauroyl])AA[αMeK]EFIK([PEG2′-PEG2′-γGlu-Lauroyl])FVVEGG-NH2
B8: SEQ ID NO: 453 (peptide)
peptide: H[Aib]EGS[αMeF]TSDV[αMeS]SYK([PEG2′-PEG2′-γGlu-Lauroyl])EGEK([PEG2′-PEG2′-γGlu-Lauroyl])A[αMeK]EFIK([PEG2′-PEG2′-γGlu-Lauroyl])FVVEGG-NH2
B9: SEQ ID NO: 445 (peptide)
peptide: H[Aib]EGS[αMeF]TSDVSK([PEG2′-PEG2′-γGlu-Lauroyl])YLEGEK([PEG2′-PEG2′-γGlu-Lauroyl])A[αMeK]EFIK([PEG2′-PEG2′-γGlu-Lauroyl])FVVEGG-NH2

What follows are binders tested against GLP-1 receptor (GLP-1R), primary cAMP assay cell line (human, UniProt P43220 24-463) (assay: cell-based or functional assay).

| cAMP Primary assay EC50, Mean pM GLP-1R [pM] | cAMP Primary assay EC50, n1 [nM] | cAMP Primary assay EC50, n2 [nM] | Binder |
| --- | --- | --- | --- |
| 144 | 0.125 | 0.162 | B1 |
| 92.4 | 0.0788 | 0.106 | B2 |
| 100 | 0.0895 | 0.111 | B3 |
| 107 | 0.0873 | 0.127 | B4 |
| 142 | 0.127 | 0.156 | B5 |
| 246 | 0.216 | 0.276 | B6 |
| 80.9 | 0.0857 | 0.0761 | B7 |
| 114 | 0.0629 | 0.165 | B8 |
| 260 | 0.242 | 0.277 | B9 |

Each binder was assayed against glucagon receptor (GCGR), primary cAMP assay cell line (human, UniProt P47871 26-477) (assay: cell-based or functional assay).
glucagon receptor (GCGR), primary cAMP assay cell line, sequence (P47871 26-477): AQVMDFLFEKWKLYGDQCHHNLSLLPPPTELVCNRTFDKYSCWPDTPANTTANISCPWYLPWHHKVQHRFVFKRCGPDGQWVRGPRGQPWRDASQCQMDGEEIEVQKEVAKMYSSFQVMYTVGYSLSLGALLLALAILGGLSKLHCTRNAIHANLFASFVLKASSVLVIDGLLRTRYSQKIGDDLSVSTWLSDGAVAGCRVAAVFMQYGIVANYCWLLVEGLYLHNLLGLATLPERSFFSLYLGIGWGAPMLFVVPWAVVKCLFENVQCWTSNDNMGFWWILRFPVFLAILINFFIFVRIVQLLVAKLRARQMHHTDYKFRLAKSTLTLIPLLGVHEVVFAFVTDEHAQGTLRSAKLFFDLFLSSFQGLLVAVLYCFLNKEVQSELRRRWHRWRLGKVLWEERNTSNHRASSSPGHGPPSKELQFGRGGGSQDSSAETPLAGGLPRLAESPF

| cAMP Primary assay EC50, n1 [nM] | cAMP Primary assay EC50, n2 [nM] | Binder |
| --- | --- | --- |
| 19.7 | 19.7 | B1 |
| 19.9 | 19.9 | B2 |
| 19.7 | 19.7 | B3 |
| 19.7 | 19.7 | B4 |
| 19.8 | 19.8 | B5 |
| 19.7 | 19.7 | B6 |
| 19.5 | 19.7 | B7 |
| 19.5 | 19.5 | B8 |
| 19.5 | 19.5 | B9 |

What follows are binders tested against T1, glucose-dependent insulinotropic … (assay: cell-based or functional assay).

| cAMP Primary assay EC50, n1 [nM] | cAMP Primary assay EC50, n2 [nM] | Binder |
| --- | --- | --- |
| 19.7 | 19.7 | B1 |
| 19.9 | 19.9 | B2 |
| 19.7 | 19.7 | B3 |
| 19.7 | 19.7 | B4 |
| 19.8 | 19.8 | B5 |
| 19.7 | 19.7 | B6 |
| 19.5 | 19.7 | B7 |
| 19.5 | 19.5 | B8 |
| 19.5 | 19.5 | B9 |
